# Results taken from patent US20150087577A1 (POLYPHOR, published 2015).
# Bridges are numbered along the chain shown (N, C = ends). Primed or numbered codes have the meaning given here. [ ]: non-standard residue; d: D form. 2Nal = N[C@@H](Cc1ccc2ccccc2c1)C(=O)O; Cit = NC(=O)NCCC[C@H](N)C(=O)O; Dab = NCC[C@H](N)C(=O)O; Pip′ = not defined here
# Biological target: human CXCR4 (human, UniProt P61073 1-352)
# Experiment: cell-based or functional assay
# human CXCR4, sequence (P61073 whole entry): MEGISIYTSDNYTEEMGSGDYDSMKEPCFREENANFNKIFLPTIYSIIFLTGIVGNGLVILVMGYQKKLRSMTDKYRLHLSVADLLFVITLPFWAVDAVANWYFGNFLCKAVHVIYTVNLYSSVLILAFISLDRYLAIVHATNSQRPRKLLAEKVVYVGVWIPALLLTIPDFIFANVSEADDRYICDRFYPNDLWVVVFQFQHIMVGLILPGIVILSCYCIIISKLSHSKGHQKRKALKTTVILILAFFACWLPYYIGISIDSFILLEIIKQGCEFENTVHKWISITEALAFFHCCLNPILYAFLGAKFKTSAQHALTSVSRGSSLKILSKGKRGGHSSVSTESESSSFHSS
Binder,IC50 (nM) Ca2+ assay (method 2) [nM],IC50 (nM) Ca2+ assay (method 1) [nM],IC50 (µM) Cell migration assay [µM]
cyclo(YR[Cit]SRG[dP]RRWNY[Cit]K[dP]P) (SMILES N=C(N)NCCC[C@@H]1NC(=O)[C@H](CO)NC(=O)[C@H](CCCNC(N)=O)NC(=O)[C@H](CCCNC(=N)N)NC(=O)[C@H](Cc2ccc(O)cc2)NC(=O)[C@@H]2CCCN2C(=O)[C@H]2CCCN2C(=O)[C@H](CCCCN)NC(=O)[C@H](CCCNC(N)=O)NC(=O)[C@H](Cc2ccc(O)cc2)NC(=O)[C@H](CC(N)=O)NC(=O)[C@H](Cc2c[nH]c3ccccc23)NC(=O)[C@H](CCCNC(=N)N)NC(=O)[C@H](CCCNC(=N)N)NC(=O)[C@H]2CCCN2C(=O)CNC1=O) [Example 151],4.2,–,–
RRWCYQKGYKGYGYRXCRGX (Cit at P16; disulfide Cys P4-Cys P17; backbone-cyclic via template Gly-DPro) [Example 156],49,–,–
"cyclo(RRWCYQKCYKGYCYR[Cit]CRG[dP]) (disulfide 8-13, 4-17) [Example 155]",0.46,–,–
cyclo(YR[Cit]VR[Cit]PRR[2Nal]FY[Cit]K[dP]P) (SMILES CC(C)[C@@H]1NC(=O)[C@H](CCCNC(N)=O)NC(=O)[C@H](CCCNC(=N)N)NC(=O)[C@H](Cc2ccc(O)cc2)NC(=O)[C@@H]2CCCN2C(=O)[C@H]2CCCN2C(=O)[C@H](CCCCN)NC(=O)[C@H](CCCNC(N)=O)NC(=O)[C@H](Cc2ccc(O)cc2)NC(=O)[C@H](Cc2ccccc2)NC(=O)[C@H](Cc2ccc3ccccc3c2)NC(=O)[C@H](CCCNC(=N)N)NC(=O)[C@H](CCCNC(=N)N)NC(=O)[C@@H]2CCCN2C(=O)[C@H](CCCNC(N)=O)NC(=O)[C@H](CCCNC(=N)N)NC1=O) [Example 31],–,1470,–
cyclo(YR[Cit]CRGGRR[2Nal]CY[Cit]K[dP]P) (disulfide 4-11; SMILES N=C(N)NCCC[C@@H]1NC(=O)CNC(=O)CNC(=O)[C@H](CCCNC(=N)N)NC(=O)[C@@H]2CSSC[C@H](NC(=O)[C@H](Cc3ccc4ccccc4c3)NC(=O)[C@H](CCCNC(=N)N)NC1=O)C(=O)N[C@@H](Cc1ccc(O)cc1)C(=O)N[C@@H](CCCNC(N)=O)C(=O)N[C@@H](CCCCN)C(=O)N1CCC[C@@H]1C(=O)N1CCC[C@H]1C(=O)N[C@@H](Cc1ccc(O)cc1)C(=O)N[C@@H](CCCNC(=N)N)C(=O)N[C@@H](CCCNC(N)=O)C(=O)N2) [Example 52],–,3.1,2.75
RRWCYQKGYXPYGYRXCRGP (D-Pro at P10; Cit at P16; disulfide Cys P4-Cys P17; backbone-cyclic via template Gly-LPro) [Example 158],250,–,–
cyclo(YR[Cit]CRG[dP]RRYCYQK[dQ]P) (disulfide 4-11; SMILES N=C(N)NCCC[C@@H]1NC(=O)[C@@H]2CSSC[C@H](NC(=O)[C@H](Cc3ccc(O)cc3)NC(=O)[C@H](CCCNC(=N)N)NC(=O)[C@H](CCCNC(=N)N)NC(=O)[C@H]3CCCN3C(=O)CNC1=O)C(=O)N[C@@H](Cc1ccc(O)cc1)C(=O)N[C@@H](CCC(N)=O)C(=O)N[C@@H](CCCCN)C(=O)N[C@H](CCC(N)=O)C(=O)N1CCC[C@H]1C(=O)N[C@@H](Cc1ccc(O)cc1)C(=O)N[C@@H](CCCNC(=N)N)C(=O)N[C@@H](CCCNC(N)=O)C(=O)N2) [Example 149],1,–,–
cyclo(YR[Cit]CRVGRR[2Nal]CY[Cit]K[dP]P) (disulfide 4-11; SMILES CC(C)[C@@H]1NC(=O)[C@H](CCCNC(=N)N)NC(=O)[C@@H]2CSSC[C@H](NC(=O)[C@H](Cc3ccc4ccccc4c3)NC(=O)[C@H](CCCNC(=N)N)NC(=O)[C@H](CCCNC(=N)N)NC(=O)CNC1=O)C(=O)N[C@@H](Cc1ccc(O)cc1)C(=O)N[C@@H](CCCNC(N)=O)C(=O)N[C@@H](CCCCN)C(=O)N1CCC[C@@H]1C(=O)N1CCC[C@H]1C(=O)N[C@@H](Cc1ccc(O)cc1)C(=O)N[C@@H](CCCNC(=N)N)C(=O)N[C@@H](CCCNC(N)=O)C(=O)N2) [Example 53],–,57.8,–
cyclo(YR[Cit]FRVPRR[2Nal]FY[Cit]K[dP]P) (SMILES CC(C)[C@@H]1NC(=O)[C@H](CCCNC(=N)N)NC(=O)[C@H](Cc2ccccc2)NC(=O)[C@H](CCCNC(N)=O)NC(=O)[C@H](CCCNC(=N)N)NC(=O)[C@H](Cc2ccc(O)cc2)NC(=O)[C@@H]2CCCN2C(=O)[C@H]2CCCN2C(=O)[C@H](CCCCN)NC(=O)[C@H](CCCNC(N)=O)NC(=O)[C@H](Cc2ccc(O)cc2)NC(=O)[C@H](Cc2ccccc2)NC(=O)[C@H](Cc2ccc3ccccc3c2)NC(=O)[C@H](CCCNC(=N)N)NC(=O)[C@H](CCCNC(=N)N)NC(=O)[C@@H]2CCCN2C1=O) [Example 28],–,2680,–
cyclo(YR[Cit]VRV[dP]RR[2Nal]FY[Cit]K[dP]P) (SMILES CC(C)[C@@H]1NC(=O)[C@H](CCCNC(N)=O)NC(=O)[C@H](CCCNC(=N)N)NC(=O)[C@H](Cc2ccc(O)cc2)NC(=O)[C@@H]2CCCN2C(=O)[C@H]2CCCN2C(=O)[C@H](CCCCN)NC(=O)[C@H](CCCNC(N)=O)NC(=O)[C@H](Cc2ccc(O)cc2)NC(=O)[C@H](Cc2ccccc2)NC(=O)[C@H](Cc2ccc3ccccc3c2)NC(=O)[C@H](CCCNC(=N)N)NC(=O)[C@H](CCCNC(=N)N)NC(=O)[C@H]2CCCN2C(=O)[C@H](C(C)C)NC(=O)[C@H](CCCNC(=N)N)NC1=O) [Example 32],–,760,–
RRYCYQKGYXPYGYRTCRGP (D-Pro at P10; disulfide Cys P4-Cys P17; backbone-cyclic via template Gly-LPro) [Example 159],118,–,–
cyclo([Pip′]RYCYQK[dP]PYR[Cit]CRG[dP]) (disulfide 4-13) [Example 150],1.4,–,–
cyclo(YR[Cit]ERG[dP]RRW[Dab]Y[Cit]K[dP]P) (lactam 4-11; SMILES N=C(N)NCCC[C@@H]1NC(=O)[C@@H]2CCC(=O)NCC[C@H](NC(=O)[C@H](Cc3c[nH]c4ccccc34)NC(=O)[C@H](CCCNC(=N)N)NC(=O)[C@H](CCCNC(=N)N)NC(=O)[C@H]3CCCN3C(=O)CNC1=O)C(=O)N[C@@H](Cc1ccc(O)cc1)C(=O)N[C@@H](CCCNC(N)=O)C(=O)N[C@@H](CCCCN)C(=O)N1CCC[C@@H]1C(=O)N1CCC[C@H]1C(=O)N[C@@H](Cc1ccc(O)cc1)C(=O)N[C@@H](CCCNC(=N)N)C(=O)N[C@@H](CCCNC(N)=O)C(=O)N2) [Example 153],21.9,–,–
"cyclo(RR[2Nal]CY[Cit]KCYKGYCYR[Cit]CRG[dP]) (disulfide 8-13, 4-17) [Example 154]",9.3,–,–
cyclo(YR[Cit][Dab]RG[dP]RRWEY[Cit]K[dP]P) (lactam 4-11; SMILES N=C(N)NCCC[C@@H]1NC(=O)[C@@H]2CCNC(=O)CC[C@H](NC(=O)[C@H](Cc3c[nH]c4ccccc34)NC(=O)[C@H](CCCNC(=N)N)NC(=O)[C@H](CCCNC(=N)N)NC(=O)[C@H]3CCCN3C(=O)CNC1=O)C(=O)N[C@@H](Cc1ccc(O)cc1)C(=O)N[C@@H](CCCNC(N)=O)C(=O)N[C@@H](CCCCN)C(=O)N1CCC[C@@H]1C(=O)N1CCC[C@H]1C(=O)N[C@@H](Cc1ccc(O)cc1)C(=O)N[C@@H](CCCNC(=N)N)C(=O)N[C@@H](CCCNC(N)=O)C(=O)N2) [Example 152],4.2,–,–
RRWCYQKGYXGYGYRXCRGX (Cit at P16; disulfide Cys P4-Cys P17; backbone-cyclic via template Gly-DPro) [Example 157],11.3,–,–
cyclo(YR[Cit]FRG[dP]RR[2Nal]FY[Cit]K[dP]P) (SMILES N=C(N)NCCC[C@@H]1NC(=O)[C@H](Cc2ccccc2)NC(=O)[C@H](CCCNC(N)=O)NC(=O)[C@H](CCCNC(=N)N)NC(=O)[C@H](Cc2ccc(O)cc2)NC(=O)[C@@H]2CCCN2C(=O)[C@H]2CCCN2C(=O)[C@H](CCCCN)NC(=O)[C@H](CCCNC(N)=O)NC(=O)[C@H](Cc2ccc(O)cc2)NC(=O)[C@H](Cc2ccccc2)NC(=O)[C@H](Cc2ccc3ccccc3c2)NC(=O)[C@H](CCCNC(=N)N)NC(=O)[C@H](CCCNC(=N)N)NC(=O)[C@H]2CCCN2C(=O)CNC1=O) [Example 38],–,720,–
"cyclo(RRWCYRKCYKGYCYRKCRG[dP]) (disulfide 8-13, 4-17) [Example 160]",0.38,–,–
cyclo(YR[Cit]VR[dR]R[2Nal]VY[Cit]K[dP]P) (SMILES CC(C)[C@@H]1NC(=O)[C@H](Cc2ccc3ccccc3c2)NC(=O)[C@H](CCCNC(=N)N)NC(=O)[C@@H](CCCNC(=N)N)NC(=O)[C@H](CCCNC(=N)N)NC(=O)[C@H](C(C)C)NC(=O)[C@H](CCCNC(N)=O)NC(=O)[C@H](CCCNC(=N)N)NC(=O)[C@H](Cc2ccc(O)cc2)NC(=O)[C@@H]2CCCN2C(=O)[C@H]2CCCN2C(=O)[C@H](CCCCN)NC(=O)[C@H](CCCNC(N)=O)NC(=O)[C@H](Cc2ccc(O)cc2)NC1=O) [Example 2],–,2830,–
cyclo(YR[Cit]CRG[dP]YR[2Nal]CYQK[dP]P) (disulfide 4-11; SMILES N=C(N)NCCC[C@@H]1NC(=O)[C@@H]2CSSC[C@H](NC(=O)[C@H](Cc3ccc4ccccc4c3)NC(=O)[C@H](CCCNC(=N)N)NC(=O)[C@H](Cc3ccc(O)cc3)NC(=O)[C@H]3CCCN3C(=O)CNC1=O)C(=O)N[C@@H](Cc1ccc(O)cc1)C(=O)N[C@@H](CCC(N)=O)C(=O)N[C@@H](CCCCN)C(=O)N1CCC[C@@H]1C(=O)N1CCC[C@H]1C(=O)N[C@@H](Cc1ccc(O)cc1)C(=O)N[C@@H](CCCNC(=N)N)C(=O)N[C@@H](CCCNC(N)=O)C(=O)N2) [Example 54],6.9,–,–
